The values that follow come from article PMC4633670, “Structural Characterization of a Newly Identified Component of α-Carboxysomes: The AAA+ Domain Protein CsoCbbQ” (Scientific Reports, 2015).

Series [1] deals with Hexa-histidine-tagged H. nea CsoCbbQ (Hneap_0905) (Halothiobacillus neapolitanus). Briefly: SEC; size exclusion data of recombinant CsoCbbQ (Supplementary Fig. 2); conditions not shown.
Series [2] shares this target. Briefly: crystal structure; His6-tagged CsoCbbQ crystallised with ATP in the mother liquor, ADP bound; 22 C, 0.1 M HEPES pH 7.5, 6% PEG-8000, 8% ethylene glycol; two molecules per asymmetric unit, hexamer by crystal symmetry.
For series [3], the target named is T1, N-terminal histidine-tagged CsoCbbO (Hneap_0910) (Halothiobacillus neapolitanus, UniProt D0KZ80 1-788).
T1 construct: CsoCbbO, cso-associated CbbO of Halothiobacillus neapolitanus, locus tag Hneap_0910; 788 amino acids, VWA domain in its C-terminus; amplified from genomic DNA with primers from the ATG to the stop codon; Cloned into the BamHI and HindIII sites of pETDuet-1; It was insoluble when expressed alone in E. coli; also called HT-CbbO; hisCsoCbbO; not shown: His6, N-terminal, kept
T1 sequence (looked up): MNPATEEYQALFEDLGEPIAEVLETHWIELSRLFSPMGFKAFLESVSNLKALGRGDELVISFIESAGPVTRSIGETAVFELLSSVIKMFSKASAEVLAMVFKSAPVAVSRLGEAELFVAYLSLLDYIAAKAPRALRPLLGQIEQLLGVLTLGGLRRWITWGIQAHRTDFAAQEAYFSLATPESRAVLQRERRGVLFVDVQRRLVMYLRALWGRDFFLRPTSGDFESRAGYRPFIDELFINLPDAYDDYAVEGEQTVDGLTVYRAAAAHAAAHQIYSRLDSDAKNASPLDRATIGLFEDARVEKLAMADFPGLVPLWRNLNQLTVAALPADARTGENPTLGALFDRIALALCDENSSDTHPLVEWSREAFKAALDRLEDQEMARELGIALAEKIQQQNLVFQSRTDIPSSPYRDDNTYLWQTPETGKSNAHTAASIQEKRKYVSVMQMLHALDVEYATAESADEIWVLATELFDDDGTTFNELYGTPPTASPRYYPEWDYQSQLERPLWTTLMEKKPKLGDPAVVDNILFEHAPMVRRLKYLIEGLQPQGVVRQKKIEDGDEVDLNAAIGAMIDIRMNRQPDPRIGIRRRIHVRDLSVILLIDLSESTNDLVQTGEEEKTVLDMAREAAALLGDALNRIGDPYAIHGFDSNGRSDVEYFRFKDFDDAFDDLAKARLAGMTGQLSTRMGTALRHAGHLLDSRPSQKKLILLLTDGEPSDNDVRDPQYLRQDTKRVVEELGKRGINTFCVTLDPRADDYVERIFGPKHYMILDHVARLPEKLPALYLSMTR
Briefly: SEC; purified CsoCbbO/Q complex on Superdex 200 10/300 GL; 10 mM Tris-HCl pH 8.0, 100 mM NaCl, 0.25 ml/min; mass estimated against protein standards. The note with it: both partners purified.

Series [4] deals with the molecule itself. Described as above.

A word on the stoichiometry N: it is the number of molecules, sites or subunits per partner or assembly. “Hexa-histidine-tagged H. nea CsoCbbQ (Hneap_0905) (enzyme)”: the stoichiometry N in series [1] and in series [2] was 6 each time.

B1: non-His6-tagged CsoCbbQ (NT-CbbQ) (enzyme, Halothiobacillus neapolitanus, UniProt D0KZ75 1-267, looked up)
chain: MTQNADQYRVRKEPYYRAVQDEIELYRAGYEARIPMMLKGPTGCGKSRFVEHMAWKLNRPLITIACNEDMTASDLVGRYLLDKDGTRWQDGPLTVAARIGAICYLDEIVEARQDTIVVIHPLTDHRRVLPLEKKGELVEAHPDFQIVISYNPGYQSLMKDLKQSTKQRFGALDFDYPKPDIEAEIVSHEAGVDKDTAEKLVQIAQKARNLKGHGLDEGLSTRLLVYAGKLIAKGVDARAACTMTLVNPITDDVDMRDALDTVVKTFF
notes: CsoCbbQ of Halothiobacillus neapolitanus, locus tag Hneap_0905
For B1, the “stoichiometry N” value in series [3] and in series [4] was ~6 throughout.
